Assay results as given in the supplement of paper PMC9112550, “Optimization of the antimicrobial peptide Bac7 by deep mutational scanning” (BMC Biology, 2022).

tested on: Escherichia coli TOP10; test: shrunken log2 fold change of peptide-encoding DNA abundance (4.5 h post-induction vs induction); higher = less antimicrobial activity (less host growth inhibition); conditions: time post-induction: 4.5 h; library: site-saturation at positions 5, 18, 19, 20
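Note: peptides expressed intracellularly from a pBAD plasmid library in pooled LB shake-flask culture, induced with 0.3% L-arabinose, DNA abundance read by NGS, three biological replicates, DESeq2 with apeglm shrinkage.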

First: RRIRGRPPRLPRPRPRPNDQPRP
Second: RRIRMRPPRLPRPRPRPRNYPRP
The “shrunken log2 fold change” value of the first is higher: 0.265 for the first, -0.0232 for the second.

Compared with RRIRQRPPRLPRPRPRPFYFPRP, RRIRDRPPRLPRPRPRPVAVPRP is higher in “shrunken log2 fold change” value: -0.697 for the first, 0.453 for the second.

Compared with RRIRWRPPRLPRPRPRPSRYPRP, RRIRARPPRLPRPRPRPQDPPRP is higher in “shrunken log2 fold change” value: -0.483 for the first, 0.557 for the second.

RRIRSRPPRLPRPRPRPGDKPRP and RRIRTRPPRLPRPRPRPCREPRP are within 0.2 log units of each other in “shrunken log2 fold change” value: 0.0832 for the first, 0.0664 for the second.

Going from RRIRHRPPRLPRPRPRPEMWPRP to RRIRSRPPRLPRPRPRPWICPRP, the “shrunken log2 fold change” value falls from 0.263 to -0.15.

Going from RRIRLRPPRLPRPRPRPWYYPRP to RRIRGRPPRLPRPRPRPHCNPRP, the “shrunken log2 fold change” value rises from -0.266 to 0.427.

Compared with RRIRGRPPRLPRPRPRPAEPPRP, RRIRYRPPRLPRPRPRPPFFPRP is lower in “shrunken log2 fold change” value: 0.176 for the first, -0.0804 for the second.

RRIRRRPPRLPRPRPRPFTPPRP and RRIRQRPPRLPRPRPRPTNIPRP are within 0.2 log units of each other in “shrunken log2 fold change” value: -0.0158 for the first, -0.122 for the second.

First: RRIRARPPRLPRPRPRPGNVPRP
Second: RRIRERPPRLPRPRPRPRYEPRP
The “shrunken log2 fold change” value of the first is higher: 0.332 for the first, -0.276 for the second.

Going from RRIRARPPRLPRPRPRPYKAPRP to RRIRMRPPRLPRPRPRPPGDPRP, the “shrunken log2 fold change” value rises from -0.302 to 1.51.

First: RRIRYRPPRLPRPRPRPMTHPRP
Second: RRIRERPPRLPRPRPRPLFIPRP
The “shrunken log2 fold change” value of the first is lower: -0.348 for the first, -0.0618 for the second.

Going from RRIRRRPPRLPRPRPRPAFCPRP to RRIRMRPPRLPRPRPRPEDHPRP, the “shrunken log2 fold change” value rises from 0.404 to 1.29.

First: RRIRKRPPRLPRPRPRPDGFPRP
Second: RRIRYRPPRLPRPRPRPSEMPRP
The “shrunken log2 fold change” value of the first is higher: 0.0522 for the first, -0.765 for the second.

Going from RRIRVRPPRLPRPRPRPTRRPRP to RRIRVRPPRLPRPRPRPFFDPRP, the “shrunken log2 fold change” value rises from 0.529 to 1.19.

Going from RRIRLRPPRLPRPRPRPMFRPRP to RRIRARPPRLPRPRPRPNRHPRP, the “shrunken log2 fold change” value rises from -0.162 to 0.0991.

Compared with RRIRARPPRLPRPRPRPILPPRP, RRIRYRPPRLPRPRPRPAAAPRP is higher in “shrunken log2 fold change” value: 0.0507 for the first, 0.455 for the second.

Compared with RRIRGRPPRLPRPRPRPAEKPRP, RRIRIRPPRLPRPRPRPVNPPRP is higher in “shrunken log2 fold change” value: 0.261 for the first, 1.75 for the second.

First: RRIRERPPRLPRPRPRPWVMPRP
Second: RRIRCRPPRLPRPRPRPGKMPRP
The “shrunken log2 fold change” value of the first is lower: -0.32 for the first, -0.055 for the second.

RRIRHRPPRLPRPRPRPAWTPRP and RRIRRRPPRLPRPRPRPFKEPRP are within 0.2 log units of each other in “shrunken log2 fold change” value: -0.136 for the first, 0.00168 for the second.

RRIRHRPPRLPRPRPRPQGQPRP and RRIRERPPRLPRPRPRPYSLPRP are within 0.2 log units of each other in “shrunken log2 fold change” value: 0.043 for the first, -0.0204 for the second.

Compared with RRIRWRPPRLPRPRPRPHGDPRP, RRIRTRPPRLPRPRPRPSCSPRP is lower in “shrunken log2 fold change” value: 0.145 for the first, -0.16 for the second.

Going from RRIRCRPPRLPRPRPRPFLPPRP to RRIRSRPPRLPRPRPRPCSDPRP, the “shrunken log2 fold change” value rises from -0.265 to 0.21.

RRIRERPPRLPRPRPRPKVPPRP and RRIRMRPPRLPRPRPRPCEFPRP are within 0.2 log units of each other in “shrunken log2 fold change” value: -0.015 for the first, 0.00328 for the second.

Compared with RRIRSRPPRLPRPRPRPCFKPRP, RRIRERPPRLPRPRPRPKYGPRP is lower in “shrunken log2 fold change” value: -0.173 for the first, -0.567 for the second.

First: RRIRWRPPRLPRPRPRPPVMPRP
Second: RRIRMRPPRLPRPRPRPEFRPRP
The “shrunken log2 fold change” value of the first is lower: 0.00935 for the first, 0.275 for the second.

Compared with RRIRFRPPRLPRPRPRPAIRPRP, RRIRHRPPRLPRPRPRPAFSPRP is higher in “shrunken log2 fold change” value: -0.32 for the first, -0.0483 for the second.

RRIRMRPPRLPRPRPRPVAYPRP and RRIRFRPPRLPRPRPRPRGVPRP are within 0.2 log units of each other in “shrunken log2 fold change” value: 0.214 for the first, 0.0819 for the second.

Compared with RRIRSRPPRLPRPRPRPHYKPRP, RRIRGRPPRLPRPRPRPELQPRP is higher in “shrunken log2 fold change” value: -0.891 for the first, 2.19 for the second.

Going from RRIRLRPPRLPRPRPRPVHYPRP to RRIRVRPPRLPRPRPRPNARPRP, the “shrunken log2 fold change” value rises from -0.498 to 0.102.

RRIRTRPPRLPRPRPRPSDKPRP and RRIRFRPPRLPRPRPRPAADPRP are within 0.2 log units of each other in “shrunken log2 fold change” value: -0.0752 for the first, 0.0709 for the second.

Compared with RRIRARPPRLPRPRPRPKVTPRP, RRIRTRPPRLPRPRPRPPPLPRP is higher in “shrunken log2 fold change” value: 0.0237 for the first, 0.352 for the second.

Compared with RRIRFRPPRLPRPRPRPNTCPRP, RRIRHRPPRLPRPRPRPGQIPRP is higher in “shrunken log2 fold change” value: -0.483 for the first, -0.00195 for the second.

RRIRKRPPRLPRPRPRPPQVPRP and RRIRTRPPRLPRPRPRPKMAPRP are within 0.2 log units of each other in “shrunken log2 fold change” value: 0.00672 for the first, 0.129 for the second.

RRIRLRPPRLPRPRPRPHRIPRP and RRIRMRPPRLPRPRPRPTVGPRP are within 0.2 log units of each other in “shrunken log2 fold change” value: -0.0339 for the first, 0.146 for the second.

Going from RRIRRRPPRLPRPRPRPWWKPRP to RRIRERPPRLPRPRPRPMYHPRP, the “shrunken log2 fold change” value falls from 0.226 to -0.594.

RRIRSRPPRLPRPRPRPGSDPRP and RRIRDRPPRLPRPRPRPCLKPRP are within 0.2 log units of each other in “shrunken log2 fold change” value: 0.0314 for the first, -0.000218 for the second.

First: RRIRVRPPRLPRPRPRPECWPRP
Second: RRIRNRPPRLPRPRPRPLMSPRP
The “shrunken log2 fold change” value of the first is higher: 0.573 for the first, -0.316 for the second.

RRIRQRPPRLPRPRPRPDLQPRP and RRIRNRPPRLPRPRPRPFENPRP are within 0.2 log units of each other in “shrunken log2 fold change” value: -0.0429 for the first, -0.0135 for the second.

RRIRCRPPRLPRPRPRPYASPRP and RRIRHRPPRLPRPRPRPDVRPRP are within 0.2 log units of each other in “shrunken log2 fold change” value: -0.0843 for the first, -0.00783 for the second.

Going from RRIRGRPPRLPRPRPRPLPPPRP to RRIRLRPPRLPRPRPRPHGEPRP, the “shrunken log2 fold change” value falls from 1.19 to 0.191.

RRIRFRPPRLPRPRPRPWMHPRP and RRIRTRPPRLPRPRPRPLIPPRP are within 0.2 log units of each other in “shrunken log2 fold change” value: -0.0282 for the first, -0.106 for the second.

RRIRNRPPRLPRPRPRPNIRPRP and RRIRRRPPRLPRPRPRPLVFPRP are within 0.2 log units of each other in “shrunken log2 fold change” value: -0.103 for the first, -0.0441 for the second.

Going from RRIRQRPPRLPRPRPRPIYKPRP to RRIRHRPPRLPRPRPRPDYHPRP, the “shrunken log2 fold change” value falls from -0.12 to -0.336.

Going from RRIRARPPRLPRPRPRPVAWPRP to RRIRERPPRLPRPRPRPDQIPRP, the “shrunken log2 fold change” value falls from 0.474 to -0.084.

Going from RRIRCRPPRLPRPRPRPICYPRP to RRIRQRPPRLPRPRPRPRANPRP, the “shrunken log2 fold change” value rises from -0.358 to 0.367.

First: RRIRPRPPRLPRPRPRPARHPRP
Second: RRIRYRPPRLPRPRPRPGLKPRP
The “shrunken log2 fold change” value of the first is higher: 0.616 for the first, -0.0239 for the second.

RRIRMRPPRLPRPRPRPDEQPRP and RRIRWRPPRLPRPRPRPNKVPRP are within 0.2 log units of each other in “shrunken log2 fold change” value: 0.0522 for the first, -0.129 for the second.

RRIRCRPPRLPRPRPRPYQRPRP and RRIRVRPPRLPRPRPRPILGPRP are within 0.2 log units of each other in “shrunken log2 fold change” value: 0.055 for the first, 0.0313 for the second.

Compared with RRIRLRPPRLPRPRPRPCNAPRP, RRIRDRPPRLPRPRPRPECTPRP is higher in “shrunken log2 fold change” value: -0.129 for the first, 1.05 for the second.

Compared with RRIRWRPPRLPRPRPRPFRCPRP, RRIRTRPPRLPRPRPRPIDIPRP is higher in “shrunken log2 fold change” value: -0.257 for the first, 0.0364 for the second.

RRIRYRPPRLPRPRPRPYRDPRP and RRIRERPPRLPRPRPRPEDCPRP are within 0.2 log units of each other in “shrunken log2 fold change” value: -0.0114 for the first, -0.104 for the second.

Going from RRIRHRPPRLPRPRPRPKQHPRP to RRIRMRPPRLPRPRPRPYNEPRP, the “shrunken log2 fold change” value falls from -0.2 to -0.811.

Compared with RRIRARPPRLPRPRPRPILDPRP, RRIRKRPPRLPRPRPRPASFPRP is higher in “shrunken log2 fold change” value: 0.229 for the first, 0.559 for the second.

RRIRVRPPRLPRPRPRPGFHPRP and RRIRARPPRLPRPRPRPWKIPRP are within 0.2 log units of each other in “shrunken log2 fold change” value: -0.184 for the first, -0.117 for the second.

Going from RRIRYRPPRLPRPRPRPQRWPRP to RRIRTRPPRLPRPRPRPGFGPRP, the “shrunken log2 fold change” value rises from -0.13 to 0.263.

First: RRIRHRPPRLPRPRPRPNPVPRP
Second: RRIRPRPPRLPRPRPRPSKYPRP
The “shrunken log2 fold change” value of the first is higher: -0.312 for the first, -0.528 for the second.

RRIRIRPPRLPRPRPRPPHTPRP and RRIRYRPPRLPRPRPRPGNGPRP are within 0.2 log units of each other in “shrunken log2 fold change” value: -0.055 for the first, -0.234 for the second.

Going from RRIRNRPPRLPRPRPRPANSPRP to RRIRVRPPRLPRPRPRPQAFPRP, the “shrunken log2 fold change” value rises from -0.153 to 0.0753.

Compared with RRIRHRPPRLPRPRPRPWWWPRP, RRIRARPPRLPRPRPRPGHPPRP is higher in “shrunken log2 fold change” value: 0.0221 for the first, 0.543 for the second.

Going from RRIRIRPPRLPRPRPRPQAYPRP to RRIRDRPPRLPRPRPRPWPPPRP, the “shrunken log2 fold change” value rises from 0.0364 to 0.32.

Going from RRIRGRPPRLPRPRPRPMARPRP to RRIRSRPPRLPRPRPRPRVHPRP, the “shrunken log2 fold change” value falls from 0.318 to 0.109.

RRIRARPPRLPRPRPRPDQAPRP and RRIRGRPPRLPRPRPRPNCTPRP are within 0.2 log units of each other in “shrunken log2 fold change” value: 0.026 for the first, 0.172 for the second.

RRIRDRPPRLPRPRPRPGVHPRP was tested, and the “shrunken log2 fold change” value was -0.0373.
